From article doi:10.64898/2025.12.11.693622 (bioRxiv, 2025)
Residue numbers refer to the chain shown, from its start. Names and notes keep the numbering of the source. Values joined by “and” are separate entries in the source; they are usually repeats but may differ in a detail not shown here. Equal values may be shown once.

B1: MBP-tagged C-terminal helical bundle of CCDC127, C144S variant (MBP-CHB^C144S, residues 137-260) (domain or fragment, human, UniProt Q96BQ5 137-260, looked up)
chain: LRSAYLSSLQREENWQRRARLLLKEFEAVLTERQNIYCSLFLPRSKRLEIEKSLLVRASVDPVAADLEMAAGLTDIFQHDTYCGDVWNTNKRQNGRLMWLYLKYWELVVELKKFKRVEEAILEK
B2: MBP-tagged C-terminal helical bundle of CCDC127, C144S with L176S/F177S/V222S/W223S (MBP-CHB^C144STip, residues 137-260) (domain or fragment, human, UniProt Q96BQ5 137-260, looked up)
chain: B1 chain with L40S, F41S, V86S, W87S
B3: MBP-tagged complete IMS domain of CCDC127, C144S with L176S/F177S/V222S/W223S (MBP-CC-CHB^C144STip, residues 48-260) (domain or fragment, human, UniProt Q96BQ5 48-260, looked up)
chain: SQKEVEKEREAYRRRTAAFQQDLEAKYHAMISENRRAVAQLSLELEKEQNRTASYREALISQGRKLVEEKKLLEQERAQVMQEKRQVQPLRSAYLSSLQREENWQRRARLLLKEFEAVLTERQNIYCSSSLPRSKRLEIEKSLLVRASVDPVAADLEMAAGLTDIFQHDTYCGDSSNTNKRQNGRLMWLYLKYWELVVELKKFKRVEEAILEK
B4: MBP-tagged complete IMS domain of CCDC127, C144S (MBP-CC-CHB^C144S, residues 48-260) (domain or fragment, human, UniProt Q96BQ5 48-260, looked up)
chain: B3 chain with S129L, S130F, S175V, S176W
B5: CCDC127 WT-HA (full-length CCDC127 with HA tag) (natural protein, human, UniProt Q96BQ5 1-260, looked up)
chain: MNNLNDPPNWNIRPNSRADGGDGSRWNYALLVPMLGLAAFRWIWSRESQKEVEKEREAYRRRTAAFQQDLEAKYHAMISENRRAVAQLSLELEKEQNRTASYREALISQGRKLVEEKKLLEQERAQVMQEKRQVQPLRSAYLSCLQREENWQRRARLLLKEFEAVLTERQNIYCSLFLPRSKRLEIEKSLLVRASVDPVAADLEMAAGLTDIFQHDTYCGDVWNTNKRQNGRLMWLYLKYWELVVELKKFKRVEEAILEK
B6: CCDC127^1-134-HA (N-terminal variant with the coiled-coil, lacking the C-terminal domain) (domain or fragment, human, UniProt Q96BQ5 1-134, looked up)
chain: MNNLNDPPNWNIRPNSRADGGDGSRWNYALLVPMLGLAAFRWIWSRESQKEVEKEREAYRRRTAAFQQDLEAKYHAMISENRRAVAQLSLELEKEQNRTASYREALISQGRKLVEEKKLLEQERAQVMQEKRQV
B7: CCDC127 coiled-coil domain (CCDC127^CC, residues 48-120), wild type (domain or fragment, human, UniProt Q96BQ5 48-120, looked up)
chain: SQKEVEKEREAYRRRTAAFQQDLEAKYHAMISENRRAVAQLSLELEKEQNRTASYREALISQGRKLVEEKKLL
B8: CCDC127^CC-K73A (residues 48-120) (domain or fragment, human, UniProt Q96BQ5 48-120, looked up)
chain: B7 chain with K26A
B9: CCDC127^CC D69A (residues 48-120) (domain or fragment, human, UniProt Q96BQ5 48-120, looked up)
chain: B7 chain with D22A
B10: CCDC127^135-260-HA (C-terminal helical bundle domain) (domain or fragment, human, UniProt Q96BQ5 135-260, looked up)
chain: QPLRSAYLSCLQREENWQRRARLLLKEFEAVLTERQNIYCSLFLPRSKRLEIEKSLLVRASVDPVAADLEMAAGLTDIFQHDTYCGDVWNTNKRQNGRLMWLYLKYWELVVELKKFKRVEEAILEK

Experiments:
[1] = biological target: the molecule itself; assay: SEC-MALS
[2] = biological target: the molecule itself; assay: cross-linking
[3] = biological target: the molecule itself; assay: crystal structure
[4] = biological target: the molecule itself; assay: AUC + SEC

Row | Protein | stoichiometry N [1] | stoichiometry N [2] | other results
1 | B1 | 2 | – | –
2 | B2 | 2 | – | –
3 | B3 | 2 to 3 | – | –
4 | B4 | 2 | – | –
5 | B5 | – | 2 | –
6 | B6 | – | 2 | –
7 | B7 | – | – | stoichiometry N [3]: 2 and 4
8 | B8 | – | – | stoichiometry N [4]: 4
9 | B9 | – | – | stoichiometry N [4]: 2
10 | B10 | – | 2 | –
